According to publication PMC7138024 (Journal of natural products, 2014):

Target: cruzain (Trypanosoma cruzi, UniProt P25779)
Assay type: biochemical
Conditions: read-out: IC50 (μM) cruzain; triplicate; phosphate buffer pH 6.3, 37 °C

Chain of cruzain (P25779 123-467): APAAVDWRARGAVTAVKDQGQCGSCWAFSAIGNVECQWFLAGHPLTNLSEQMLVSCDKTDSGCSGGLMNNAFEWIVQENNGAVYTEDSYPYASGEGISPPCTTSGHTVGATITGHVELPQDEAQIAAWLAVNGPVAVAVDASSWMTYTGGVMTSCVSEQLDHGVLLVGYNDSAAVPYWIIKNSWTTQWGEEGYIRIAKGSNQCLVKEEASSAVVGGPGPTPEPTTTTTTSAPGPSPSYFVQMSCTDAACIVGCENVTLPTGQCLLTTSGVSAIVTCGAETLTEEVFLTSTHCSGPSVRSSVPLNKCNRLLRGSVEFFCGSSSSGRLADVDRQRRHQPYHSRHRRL

B1: cystatin (protein)
chain: SEDRSRLLGAPVPVDENDEGLQRALQFAMAEYNRASNDKYSSRVVRVISAKRQLVSGIKYILQVEIGRTTCPKSSGDLQSCEFHDEPEMAKYTTCTFVVYSIPWLNQIKLLESKCQ
modifications: two disulfides; Limits are the mature chain
IC50: 0.0085 ± 0.025 µM
